# From the nanobody polyreactivity screen of Harvey et al. (2022)
# Assay: yeast display, Sf9 membrane polyspecificity reagent, FACS + sequencing; frameworks hold sequencing errors
# Procedure, shortened: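 A synthetic nanobody library was expressed on Saccharomyces cerevisiae BJ5465 by galactose induction for 36–48 hours. The library was stained for 1 hour at 4 °C with 10% biotinylated, detergent-solubilized Sf9 membrane reagent and enriched with streptavidin microbeads before FACS. Low and high (top ~1%) gates were set on anti-HA fluorescence for expression and streptavidin fluorescence for reagent binding, and each polyreactivity label reflects the gate of origin.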
row,Sequence,polyreactivity (PSR sort gate)
1,QVQLVESGGGLVQAGGSLRLSCAASGIIFLQYAMGWYRQAPGKERELVAAITRRGDRTYYADSVKGRFTISRDNAKNTVYLQMNSLKPEDTAVYYCAASYWYRDYYYWGQGTQVTVSS,high polyreactivity
2,QVQLVESGGGLVQAGGSLRLSCAASGIIFLRNTMGWYRQAPGKERELVASISRRGGSTYYADSVKGRFTISRDNAKNTVYLQMNSLKPEDTAVYYCNKRSLEKGDYWGQGTQVTVTS,high polyreactivity
3,QVQLVESGGGLVQAGGSLRLSCAASGIIFLTHAMGWYRQAPGKERELVAAITAIGGSTYYADSVKGRFTLSRDNAMNTVYLLMISLKPEDTADYYCAADFSYVYYLYDFWGQGTKVTVSS,low polyreactivity
4,QVQLVESGGGLVQAGGSLRLSCAASGIIFNFNAMGWYSQAPGKERELVAGISYGGGRTYYADSVKGRFTISRDNAINTVYLQMNSLKPEDTAFYYCNKYGLGIYRGYYWGQGTQVTVSS,high polyreactivity
5,QVQLVESGGGLVQAGGSLRLSCAASGIIFNHYAMGWYGQAPGKERELVAAISRRGGSTYDADSVKGRFTISRDNAKNTVYLQMNSLKPEDTAVYYCNDRSFATGSKVPARGYWGQGTQVTVSS,high polyreactivity
6,QVQLVESGGGLVQAGGSLRLSCAASGIIFNRYAMGWYRQAPGKERELVAAITYSGDNTYYADSVKGRFTISRDNAKNTVYLQMNSLKPEDTAVYYCAAVSSRGGDYYWGQGTQVTVSS,high polyreactivity
7,QVQLVESGGGLVQAGGSLRLSCAASGIIFNSNAMGWYRQAPGKERELVAGISRGSSTSYADSVKGRFTISRDNAKNPVYLQMNSLKPADNAVYFCNAEVYSPQQFTPPDRYYYWGQGTQVTVSS,low polyreactivity
8,QVQLVESGGGLVQAGGSLRLSCAASGIIFNVNAMGWYRQAPGKERELVASINSGSTYYADSVKGRFTISRDNAKNTVYLQMNSLKPEDTAVYYCATGARSPPWGRSKKRTYYYWGQGTQVTVSS,high polyreactivity
9,QVQLVESGGGLVQAGGSLRLSCAASGIIFNYYTMGWYRQAPGKERELVAVITSRGSSPYYADSVKGRFTISRDNAKNTVNLQMNSLKPDDTAVYYCAKVRPYLDTNEYYYWGQGTQVTVSS,high polyreactivity
10,QVQLVESGGGLVQAGGSLRLSCAASGIIFPAYAMGWYRQARGKERELVAAITSRGGSTYYADSVKGRFTISRDNAKNTVYLQMNSLKPEDTAVYYCNAAALADYDYWGQGTQVTVSS,low polyreactivity
11,QVQLVESGGGLVQAGGSLRLSCAASGIIFPGKAMGWYRQAPGKERELVAAISSGGNTKYADSVKGRFTISRDNAKNTGYLQMNSLNPEDTAVYYCAAAARARNPSYGRNYWGQGTQVTVSS,high polyreactivity
12,QVQLVESGGGLVQAGGSLRLSCAASGIIFPQNAMGWSRQAPGKERELVAAISKSGGRTYYADSVKGRFTISRDNAKNTVYVQMNSLKPEDSAVYYCAKVPYAYSRDRSAEDSWGQGTQVTVSS,high polyreactivity
13,QVQLVESGGGLVQAGGSLRLSCAASGIIFPRYAMGWYRQAPGKERELVAAITRRGGRTYYADSVKGRFTISRDNAKNTVYLQMNSLKPEDTAVYYCNADFISPRPPKATDEDYWGQGTQVTVSS,high polyreactivity
14,QVQLVESGGGLVQAGGSLRLSCAASGIIFPSYDMGWYRQAPGKERELVAAINSGDSTYYADSVKGRFTISRDNAKNTVYLQMNSLKPEDTAVYYCAANPGDLGGWYVPYDYWGQGTQVTVSS,low polyreactivity
15,QVQLVESGGGLVQAGGSLRLSCAASGIIFPSYVMGWYRQAPGKERELVAVITWSGGSTYYADSVKGRFTISRDNAKNTVYLQMNSLKPEDTAVYYCARRRRWVHSFDYWGQGTQVTVSS,high polyreactivity
16,QVQLVESGGGLVQAGGSLRLSCAASGIIFPTYVMGWYRQAPGKERELVAVISWSGASTYYADSVKGRFTISRDNAKNSVYLQMNSLKPEDTAVYYCAADWWRVEMDYWGQGTQVTVSS,low polyreactivity

row,Sequence,polyreactivity (PSR sort gate)
1,QVQLVESGGGLVQAGGSLRLSCAASGIIFPYYAMGWYRQAPGKERELVAAINSSGGSTFYAHSVKGRFTISRDNAKNTVYLQMNSLKPVVTAVYYCAAETLRYRWSLYYWGQGTQVTVSS,high polyreactivity
2,QVQLVESGGGLVQAGGSLRLSCAASGIIFPYYAMGWYRQAPGKERELVARITRRGGSTYYADSVKGRFTISRDNAKNTVYLQMNSLKPEDTAVYYCAAYAPYYRTMEYWGQGTQVTLSS,high polyreactivity
3,QVQLVESGGGLVQAGGSLRLSCAASGIIFQDNAMGWYRQAPGKERELVATIDRGGDTYYADSVKGRFTISRDNAKNTVYLQMNSLKPEDTAVYYCAAVEFELRGDYWGQGTQVTVSS,low polyreactivity
4,QVQLVESGGGLVQAGGSLRLSCAASGIIFQFYAMGWYRQAPGKERELVAAISRSGGITHYADSVKGRFTISRDNAKNTVYLQMNSLKPEDTAVYYCAAVRQAYPRLDYWGQGTQVTVSS,high polyreactivity
5,QVQLVESGGGLVQAGGSLRLSCAASGIIFQFYAMGWYRQAPGKERELVAAISRSGGITHYADSVKGRFTISRDNAKNTVYLQMNSLKPEDTAVYYCNAVQPARFVGGFGTGVDYWGQGTQVTVSS,high polyreactivity
6,QVQLVESGGGLVQAGGSLRLSCAASGIIFQHNAMGWYRQAPGKERELVAAISSNGGRTFYPDSVKGRFTISRDNAKNTVYLQMNSLKPEDTAVYYCNRQYPSRYGYWGQGTQVTVSS,high polyreactivity
7,QVQLVESGGGLVQAGGSLRLSCAASGIIFQLNAMGWYRQAPGKERELVAAISSVGSTYYADSVKGRFTISRDNAKNTVYLQMNSLKPEDTAVYYCAAETYSTAHNAYFEIAYYWGQGTQVTVSS,high polyreactivity
8,QVQLVESGGGLVQAGGSLRLSCAASGIIFQQYAMGWYRQAPGKERELVAAITYSGDGTYYADSVKGRFTISRDNAKNTVYLQMNSLKPEDTAVYYCAAYPRDPYKEYDYWGQGTQVTVSS,low polyreactivity
9,QVQLVESGGGLVQAGGSLRLSCAASGIIFQRNDMGWYRQAPGKERELVASITSGGSTNYADSVKGRFTISRDNAKNTVYLQMNSLKPEDTAVYYCARVSVSDYDYWGQGTQVTVSS,low polyreactivity
10,QVQLVESGGGLVQAGGSLRLSCAASGIIFRANAMGWYRQAPGKERELVAAISSSGGSTFYADSVKGRFTISRDNAKNTVYLQMNSLKPEDTAVYFCAAGRSKFAWSEYEYWGQGTQVSVSS,low polyreactivity
11,QVQLVESGGGLVQAGGSLRLSCAASGIIFRDNAMGWYRQAPGKERELVAAIDSSGGTTYADSVKGRFTISRDNAKNTVYLQTHSLTPEDTAVYYCATEVYWTVSYYGYDYYGGNYYYWGQGTQVTVSS,low polyreactivity
12,QVQLVESGGGLVQAGGSLRLSCAASGIIFRFNGMGWYRQAPGKEREFVAAISGGAGSTYYADSVKGRFTISRDNAKNTVYLQMNSLKPEDTAVYYCAAVWRTRWASGYYWGQGTQVTVSS,high polyreactivity
13,QVQLVESGGGLVQAGGSLRLSCAASGIIFRFYAMGWYRQAPGKERELVARIRSRGGSTYYADSVKGRFTISRDNAKNTVYLQMNSLKPEDTAVYYCAAGAGYPYYWGQGTQVTVSS,high polyreactivity
14,QVQLVESGGGLVQAGGSLRLSCAASGIIFRGNAMGWYRQAPGKERELVAAISSGGSTYYADSVKGRFTISRDNAKNRVYLQMNSLKPEDTAVYYCNARWYYWGTLYGSWGHGTQVTVSS,high polyreactivity
15,QVQLVESGGGLVQAGGSLRLSCAASGIIFRGNAMGWYRQAPGKERELVAAMSKSGGRTYYADSVKGRFTISRDNAKNTVYLQMNSLKPEDTAVYYCAARRSTSYPAGNDYWGQGTQVTVSS,high polyreactivity
16,QVQLVESGGGLVQAGGSLRLSCAASGIIFRGYVMGWYRQAPGKERELVAAISTSGGRTSYADSVKGRFTISRDNAKNTVYLQMNSLKPEDTAVYYCAARPLYSYSQWGYGYWGQGTQVTVSS,high polyreactivity
